{"source": "patent US20230101735A1", "about": "“ANTI-TROP-2 ANTIDODY-EXATECAN ANALOG CONJUGATE AND MEDICAL USE THEREOF” (JIANGSU HENGRUI MEDICINE CO., LTD., priority 2020, published 2023)", "molecules": {"B1": {"name": "ADC-4 (TINA-58, n=3.99) (antibody, human IgG1, kappa, V domains shown)", "VH": "QVQLVQSGAEVKKPGASVKVSCKASGYTFTTAGMQWVRQAPGQGLEWMGWINTHSGVPKYAEDFKGRVTISADTSTSTAYLQLSSLKSEDTAVYYCARSGFGSSYWYFDVWGQGTLVTVSS", "VL": "DIQMTQSPSSLSASVGDRVTITCKASQDVSTAVAWYQQKPGKAPKLLIYSASYRYTGVPSRFSGSGSGTDFTLTISSLQPEDFAVYYCQQHYITPLTFGQGTKLEIKR", "modifications": "compound 58 coupled to cysteine thiols after TCEP reduction; positions not given; compound 58 (linker-drug) coupled to cysteine thiols after TCEP reduction; mean n=3.99 per antibody, positions not given"}, "B2": {"name": "ADC-7 (hRS7-9-A, n=3.72) (antibody, human IgG1, kappa, V domains shown)", "VH": "QVQLQQSGSELKKPGASVKVSCKASGYTFTNYGMNWVKQAPGQGLKWMGWINTYTGEPTYTDDFKGRFAFSLDTSVSTAYLQISSLKADDTAVYFCARGGFGSSYWYFDVWGQGSLVTVSS", "VL": "B1 VL with M4L, T20S, T31I, S60D, Q100A, L104V", "modifications": "compound 9-A coupled to cysteine thiols after TCEP reduction; positions not given; compound 9-A coupled to cysteine thiols after TCEP reduction; mean n=3.72 per antibody, positions not given"}, "B3": {"name": "TINA anti-TROP-2 antibody (control molecule) (antibody, human IgG1, kappa, V domains shown)", "VH": "B1 VH", "VL": "B1 VL"}, "B4": {"name": "ADC-5 (PD3-58, n=3.88) (antibody, human IgG1, kappa, V domains shown)", "VH": "B2 VH with Q1E, Q5V, D62Q, D89E, F95Y, S115T", "VL": "B1 VL with M4L, T20S, T31I, S60D, Q100A, L104V", "modifications": "compound 58 coupled to cysteine thiols after TCEP reduction; positions not given; compound 58 coupled to cysteine thiols after TCEP reduction; mean n=3.88 per antibody, positions not given"}, "B5": {"name": "PD3 anti-TROP-2 antibody (antibody, human IgG1, kappa, V domains shown)", "VH": "B2 VH with Q1E, Q5V, D62Q, D89E, F95Y, S115T", "VL": "B1 VL with M4L, T20S, T31I, S60D, Q100A, L104V", "notes": "CDR-mutated variant designed on the hRS7 template; also called PD3 antibody"}, "B6": {"name": "hRS7 anti-TROP-2 antibody (control molecule) (antibody, human IgG1, kappa, V domains shown)", "VH": "B2 VH", "VL": "B1 VL with M4L, T20S, T31I, S60D, Q100A, L104V"}}, "key": {"[1]": {"biological_target": "T1, hTROP-2 (Homo sapiens, UniProt P09758)", "T1 sequence (P09758 27-274)": "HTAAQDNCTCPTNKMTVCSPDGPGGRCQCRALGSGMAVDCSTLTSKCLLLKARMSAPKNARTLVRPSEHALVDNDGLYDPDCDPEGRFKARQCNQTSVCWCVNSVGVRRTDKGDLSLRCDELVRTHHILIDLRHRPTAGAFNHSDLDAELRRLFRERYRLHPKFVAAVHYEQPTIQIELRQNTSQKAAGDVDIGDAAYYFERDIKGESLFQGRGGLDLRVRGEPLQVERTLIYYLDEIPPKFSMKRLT", "assay": "Antibody protein level binding assay (ELISA)", "conditions": "absorbance at 450 nm", "experimental": "(§1) hTROP-2 protein was diluted to 1 μg/mL with PBS buffer at pH 7.4 (Shanghai BasalMedia Technologies Co., LTD., B320), added into a 96-well microplate at 100 μL per well, and incubated at 4° C. overnight. After the liquid was discarded, 300 μL of 5% skim milk (BD, 232100) diluted with PBS was added into each well for blocking and incubated at 37° C. for 2 h. After the blocking was completed, the blocking solution was discarded; after the plate was washed 3 times with PBST buffer (pH 7.4, PBS containing 0.1% tween-20), 100 μL of a gradient diluted antibody solution was added into each well and incubated at 37° C. for 1 h. After the incubation was completed, the plate was washed 3 times with PBST buffer, and 100 μL of 1:8000 diluted mouse anti-human IgG (H+L) (Jackson ImmunoResearch, 209-035-088) was added into each well and incubated at 37° C. for 1 h. After the plate was washed 3 times with PBST buffer, 100 μL of TMB chromogenic substrate (KPL, 5120-0077) was added into each well and incubated at room temperature for 10-15 min, and the reaction was terminated by adding 50 μL of 1 M H2504 into each well. The plate was detected for the absorbance at 450 nm using a microplate reader, the binding curves of antibodies to antigen were fitted with software, and the EC50 value was calculated."}, "[2]": {"system": "TROP-2", "assay": "Antibody endocytosis assay (DT3C cell killing)", "format": "cell-based", "conditions": "antibody-DT3C mixture, three days, CTG"}, "[3]": {"biological_target": "T2, TROP-2 expressed on tumor cell lines (FaDu, HCC827, Colo205, DMS53, SK-OV-3) (human, UniProt P09758 27-323)", "T2 sequence": "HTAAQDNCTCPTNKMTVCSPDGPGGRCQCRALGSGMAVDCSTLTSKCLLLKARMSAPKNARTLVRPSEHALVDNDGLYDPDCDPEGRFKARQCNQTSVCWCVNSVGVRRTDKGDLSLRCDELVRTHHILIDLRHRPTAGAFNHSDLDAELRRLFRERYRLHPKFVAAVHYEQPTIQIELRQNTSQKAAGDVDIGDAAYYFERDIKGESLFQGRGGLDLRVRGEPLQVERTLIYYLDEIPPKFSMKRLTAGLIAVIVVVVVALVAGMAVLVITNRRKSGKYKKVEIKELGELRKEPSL", "assay": "cell-based or functional assay"}, "[4]": {"biological_target": "T3, human TROP-2 on stably transfected CHO-K1 cells (CHO-K1/hTROP-2) (human, UniProt P09758 27-323)", "T3 construct": "Full-length TROP-2 (Genbank NP_002344.2) expressed from a lentiviral vector; also called stably transfected TROP-2-expressing CHOK1 cells; hTROP-2 protein-expressing cells", "T3 sequence": "T2 sequence", "assay": "flow cytometry (geometric mean fluorescence) on stably transfected TROP-2-expressing CHOK1 cells, Alexa Fluor 488 anti-human IgG detection", "experimental": "(§2) After centrifugation and removal of the supernatant, the test antibodies that was diluted with FACS buffer to different concentrations were added at 50 μL/well. The plate was incubated in the dark in a 4° C. refrigerator for 1 h. The plate was washed 3 times with FACS buffer by centrifugation at 300 g, and Alexa Fluor 488 goat anti-human IgG (H+L) (invitrogen, A-11013) at working concentration was added. The plate was incubated in the dark in a 4° C. refrigerator for 40 min. The plate was washed 3 times with FACS buffer by centrifugation at 300 g and tested on a BD FACSCantoII flow cytometer for geometric mean fluorescence intensity (MFI). The binding EC₅₀ value of the antibody to the stably transfected TROP-2-expressing cells was calculated."}, "[5]": {"biological_target": "T4, hTROP-2 protein (huTROP-2 protein, His27-Thr274, accession No. NP_002344.2) (human, UniProt P09758 27-274)", "T4 construct": "No tag is stated for this construct; also called antigen hTROP-2", "T4 sequence": "T1 sequence (P09758 27-274)", "assay": "SPR (Biacore T200), antibody captured on chip, hTROP-2 as analyte, 1:1 Langmuir fit", "text": "The affinity of antibody for TROP-2 was detected in a form of a capture antibody. […] After dissociation was completed for each assay cycle, the chip was washed clean and regenerated with regeneration buffer, Glycine1.5 (Cat. #BR100354, GE) or 3 M MgCl₂ (from Human antibody capture kit, Cat. #BR100839, GE). After the assay was completed, the data were fitted with (1:1) Langmuir model using GE Biacore T200 Evaluation version 3.0 to obtain affinity values."}, "[6]": {"biological_target": "T4, hTROP-2 protein (huTROP-2 protein, …)", "assay": "ELISA, plate coated with hTROP-2 protein at 1 ug/mL, anti-human IgG detection, OD450", "experimental": "as §1, with “EC₅₀” for “EC50”"}, "[7]": {"biological_target": "T3, human TROP-2 on stably transfected …", "assay": "flow cytometry on stably transfected TROP-2-expressing CHOK1 cells", "experimental": "as §2"}, "[8]": {"biological_target": "T2, TROP-2 expressed on tumor cell lines …", "assay": "cell-based or functional assay", "remark": "listed apart in the source"}}, "note": "Residue numbers refer to the chain shown, from its start.", "data": [{"molecule": "hRS7: control anti-TROP-2 antibody, heavy chain SEQ ID NO: 15, light chain SEQ ID NO: 16, constructed with reference to WO03074566 [reference compound]", "values": [{"measurement": "Emax (OD value)", "setting": "[1]", "value": 1.37, "unit": "OD value"}, {"measurement": "Emax", "setting": "[2]", "value": 98.5, "unit": "%"}]}, {"molecule": "B1", "values": [{"measurement": "EC50 (nM), killing of Colo205 cells", "setting": "[3]", "value": 59.8, "unit": "nM"}, {"measurement": "EC50 (nM), killing of DMS53 cells", "setting": "[3]", "value": 75.6, "unit": "nM"}, {"measurement": "EC50 (nM), killing of FaDu cells (CTG, 6 days)", "setting": "[3]", "value": 0.53, "unit": "nM"}, {"measurement": "EC50 (nM), killing of HCC827 cells", "setting": "[3]", "value": 0.27, "unit": "nM"}, {"measurement": "Emax (%), killing of Colo205 cells", "setting": "[3]", "value": 99.7, "unit": "%"}, {"measurement": "Emax (%), killing of DMS53 cells", "setting": "[3]", "value": 89.8, "unit": "%"}, {"measurement": "Emax (%), killing of FaDu cells", "setting": "[3]", "value": 101, "unit": "%"}, {"measurement": "Emax (%), killing of HCC827 cells", "setting": "[3]", "value": 88.2, "unit": "%"}, {"measurement": "Emax (%), killing of SK-OV-3 cells", "setting": "[3]", "value": 49.1, "unit": "%"}]}, {"molecule": "B2", "values": [{"measurement": "EC50 (nM), killing of Colo205 cells", "setting": "[3]", "value": 52.8, "unit": "nM"}, {"measurement": "EC50 (nM), killing of DMS53 cells", "setting": "[3]", "value": 72.9, "unit": "nM"}, {"measurement": "EC50 (nM), killing of FaDu cells (CTG, 6 days)", "setting": "[3]", "value": 0.31, "unit": "nM"}, {"measurement": "EC50 (nM), killing of HCC827 cells", "setting": "[3]", "value": 0.18, "unit": "nM"}, {"measurement": "Emax (%), killing of Colo205 cells", "setting": "[3]", "value": 99.5, "unit": "%"}, {"measurement": "Emax (%), killing of DMS53 cells", "setting": "[3]", "value": 88.7, "unit": "%"}, {"measurement": "Emax (%), killing of FaDu cells", "setting": "[3]", "value": 101, "unit": "%"}, {"measurement": "Emax (%), killing of HCC827 cells", "setting": "[3]", "value": 89.3, "unit": "%"}, {"measurement": "Emax (%), killing of SK-OV-3 cells", "setting": "[3]", "value": 66.1, "unit": "%"}]}, {"molecule": "B3", "values": [{"measurement": "EC50 (read off the curve)", "setting": "[4]", "value": "~4", "unit": "µg/mL"}, {"measurement": "Kd", "setting": "[5]", "value": 21.5, "unit": "nM"}, {"measurement": "EC50", "setting": "[6]", "value": 16.1, "unit": "nM"}, {"measurement": "Emax (OD value)", "setting": "[6]", "value": 1.39, "unit": "OD"}, {"measurement": "EC50", "setting": "[7]", "value": 3.55, "unit": "nM"}, {"measurement": "Emax (MFI)", "setting": "[7]", "value": 14200, "unit": "MFI"}]}, {"molecule": "B4", "values": [{"measurement": "EC50 (nM), killing of Colo205 cells (second parallel assay)", "setting": "[8]", "value": 25.6, "unit": "nM"}, {"measurement": "EC50 (nM), killing of DMS53 cells (second parallel assay)", "setting": "[8]", "value": 25.7, "unit": "nM"}, {"measurement": "EC50 (nM), killing of FaDu cells (second parallel assay)", "setting": "[8]", "value": 0.14, "unit": "nM"}, {"measurement": "EC50 (nM), killing of HCC827 cells (second parallel assay)", "setting": "[8]", "value": 0.13, "unit": "nM"}]}, {"molecule": "B5", "values": [{"measurement": "EC50 (read off the curve)", "setting": "[4]", "value": "~2", "unit": "µg/mL"}, {"measurement": "Kd", "setting": "[5]", "value": 0.686, "unit": "nM"}, {"measurement": "EC50", "setting": "[6]", "value": 13.6, "unit": "nM"}, {"measurement": "Emax (OD value)", "setting": "[6]", "value": 1.4, "unit": "OD"}, {"measurement": "EC50", "setting": "[7]", "value": 1.57, "unit": "nM"}, {"measurement": "Emax (MFI)", "setting": "[7]", "value": 16700, "unit": "MFI"}]}, {"molecule": "B6", "values": [{"measurement": "EC50 (read off the curve)", "setting": "[4]", "value": "~3", "unit": "µg/mL"}, {"measurement": "Kd", "setting": "[5]", "value": 0.987, "unit": "nM"}, {"measurement": "EC50", "setting": "[6]", "value": 18.3, "unit": "nM"}, {"measurement": "Emax (OD value)", "setting": "[6]", "value": 1.37, "unit": "OD"}, {"measurement": "EC50", "setting": "[7]", "value": 2.31, "unit": "nM"}, {"measurement": "Emax (MFI)", "setting": "[7]", "value": 16000, "unit": "MFI"}]}]}
